Reference: the DeepSol protein solubility set

Assay: soluble on expression in E. coli; label from the status in PepcDB or PDB records

Soluble on expression in E. coli, soluble:
GPGSMPPAPAPPFSSVSQCLSALLPPTAFSLLPLTHTHTHTHTHRTCTHIIFSEPHIVFYCVCPFTRCHRRRPLPSPLSLSLPQHTTLSTAINKHEAEVVLDWSMSRLARALAKPFTVPVAMCTRHVAAMDEPLKRHIDAYAARGEDITIAVWREYVDGQRALLPYRWTKFRSEVAYLTSGQMAITDLTFADLLVFIRFLTKCLFIFIVAVMVGRRSVFPSLEPTSPFVEEIVKNWQPNRLHGVAGAEYMACDQAAAAGYGHR
MSLLSGGLSLNDKSWQALVFDYTNDGMGWPIGALASAEQILLAMSAQLVDTDFELSLLLPEGEGEEALFELADAVAEWINHFISGLGLSGANLKHASVEAKEALEDLEEMSKLGIDEEDDLAEQAELLEQVIEHIKVCVLVLHAEFGVKPEQDTKPTVHEGGSHHHHHH
SLGNSYAGQLKTTRFEEVLHNSIEASLRSNNLVPRPIFSQLYLEAEQQLAALEGGSRVDNEEEEEEGEGGLETNGPPNPFQLHPLPEGCCTTDGFCQAGKDLRLVSISNEPMDVPAGFLLVGVKSPSLPDHLLVCAVDKRFLPDDNGHNALLGFSGNCVGCGKKGFCYFTEFSNHINLKLTTQPKKQKHLKYYLVRNAQGTLTKGPLICWKGSEFRSRQIPASTCSSSLFPALESTAAFPSEPVPGTNPSILMGAQQAGPASDHPSLNAAMGPAVFNGKDSPKCQQLAKNNLLALPRPSALGILSNSGPPKKRHKGWSPESEG
MIAEAAAVEVQANEAPVVAPIMYKVESNDGKVFEISDEAVKQSNILSNLISTCAPEDVASMDPIPITNVTGNILKMVIEWCEKHKGEALPVEDDSVPKNINVPEWDTNFLKIDNEVLFDLIVACNYLDVPGLMNYGCKMVANMAIGKSPDELRIIFAIPTDEEDEAAERAAKEKAEAEKKAIADKDAAEPSTSK
MMRRTLENRNAQTKQLQTAVSNVEKHFGELCQIFAAYVRKTARLRDKADLLVNEINAYAATETPHLKLGLMNFADEFAKLQDYRQAEVERLEAKVVEPLKTYGTIVKMKRDDLKATLTARNREAKQLTQLERTRQRNPSDRHVISQAETELQRAAMDASRTSRHLEETINNFERQKMKDIKTIFSEFITIEMLFHGKALEVYTAAYQNIQNIDEDEDLEVFRNSLYAPDYSSRLDIVRANSKSPLQRSLSAKCVSGTGQEAGWAATCQTLI
MSLSEIDQVSYNFHIRPILSDKCFACHGPDANKREADLRLDTEEGAFKALKESPGKFALVSGKPEESELFHRITSEDPGELMPPTESNLVLSDTEIGLIKKWIEQGAEYEPHWAFTKAEKPELPSENEWAVNEIDRFVYQKMVEKGLEPNPKADPQELIKRASLDITGLPPSPEILDQYSDLSNDAYQNLLDGLLADPSFGEKLGVLWMDISRYADSYGYQDDNIRSQWPYRDWVIHAFNENMPYDQFITYQLAGDLLPNATKEQILATAFNRNHKYTEEGGVIDEEYRIEYVLDKTNTFSKGVLGITMECAQCHDHKYDPFSQKDYYELFAFFNNTPEKGYEGDVSVSKPAKTPILWVDQEGHHHHHH
MGRINELRMISRVAQMYFSEHKRQAEIAQHLNLSQATVSRMLKRAEAEGIVRTSIIPPPGTYSDLEAQLRERFDLPEAIVVDCSEDRDGAIMARIGEAAAHFLEVTLSQNEIIGVSSWSQTIFKMVENIHPLKGAKARYIVQTLGGMGDPSVQTHATQITTRLARLTEAEPKLLPVPGVATSREAKLLMLADPFVRETIDLFGSITLAIVGVGAVEPSELLARSGNIFSTKELADLAQAGAVGDISLRFFDKDGKPVKTPLDDRVIGLPLENLSNVDRVIALAGGLKKTEAIAGALRTGVIDVLVTDKFTAERLVGQET

Soluble on expression in E. coli, not soluble:
MFSSAVRALCRTVPTVATRQLSTSRALLSLRPLGPKNTVPAFKGTAVVDGDFKVISDQDYKGKWLVMFFYPLDFTFVCPTEIIAYGDRANEFRSLGAEVVACSCDSHFSHLAWVNTPRKDGGLGDMDIPLLADFNKKIADSFGVLDKESGLSYRGLFLIDPSGTVRHTTCNDLPVGRSVDETLRVLKAFQFSDKHGEVCPADWHEDSPTIKPGVATSKEYFNKVNK
WYKDRGVYHWLSSGQEGTDIPYLGSSVFCSELYEKQMELIRLQHQKLHETEAKLDARVTYMNQWVHQVKTPLSVINLIIQEEDEPVFEQIKKEVRQIEFGLETLLYSSRLDLFERDFKIEAVSLSELLQSVIQSYKRFFIQYRVYPKMNVCDDHQIYTDAKWLKFAIGQVVTNAVKYSAGKSDRLELNVFCDEDRTVLEVKDYGVGIPSQDIKRVFDPYYTGENGRRFQESTGIGLHLVKEITDKLNHTVDISSSPGEGTSVRFSFLTK
GPGSMVEYKSAAAIAQALFTTHGKDSTTFNRLLRDRIGKRGDRFTEDHPDTFLYIERSKNANVVAYTARFVDAETKKPVPSGVGRDCIIKHDGPVHAYFITLDPQQMEKLRAKGRTSLIDDLNFVQRKMAYGCSGKSFDVASASRECDNPADFKRWMSAFDPYTLSYVALAKYPTLLLTLKPVKDSNGEENDTAVALIAVIGGELSVVKKIYVSSTEPKHFYELPTVNYIEVFGVSVDKGSDTYEKKAP
MAAPAAVRRGGRSTSSAMAMDSGRPVTSGILASLCEQWQNQPRTPLSHRSGNLPMSDPDVLIIGAGHNGLTCAAYLARAGLKVKVVERRNVVGGAAVTQEFHPGFRNSVAAYTVSLLNPKVIADLKLHEHGLRIVERKAQNFLPAPDGQYLLTGSNTTAASLARLSAHDAAAFGGFAAELETIADVLRHFVLRAPPNLVVQFGLPAIRESLNALETANRLRALTMEQQRLLLDLFTCSAGEMLDARFEHDLVKALFGFDAIVGNYASPYAAGSAYVMLHHAFGEVNGKKGVWGHAIGGMGAITSAMAAAARAAGAEIETSAGVREVLVEKDRVVGVTLDDGRNVRARFVASNVNPKLLYTRLLPQDALPDDVRRRMQNWKTGSGTFRMNVALSRLPSFTALPGDGDHLTAGIIIAPSLGYMDRAYQDARAHGWSREPVVEMLIPSTLDDSLAPKGQHVASLFCQHVAPELPDGASWDDHRDEVADLMIATVDRYAPGFAASVLGRQILSPLDLEREFGLVGGDIFHGALSLNQLFSARPLLGHADYRGPLKGLYHCGSGAHPGGGVTGAPGHNAAAAILNDHRSLFASRGLEHHHHHH
SQTRDLQGGKAFGLLKAQQEERLDEINKQFLDDPKYSSDEDLPSKLEGFKEKYMEFDLNGNGDIDIMSLKRMLEKLGVPKTHLELKKLIGEVSSGSGETFSYPDFLRMMLGKRSAILKMILMYEEKAREK
MAHHHHHHMSDVIKLCEAEELKELFIKEYNEYLKLIKNVELYYEKLEINWKKFHLFYQQNKKDPFEYHKEKNKHNKIKKVQNKKKNINIHSDYQSIEKYFKMIQKKEIQNNCHYYKKFDYDKDSFILFTLKKNVNNAVELYININIEKLNKIKNYLLNYINDFCKRQINQIINLIILCEIKLNNLYISQKNHFTNNNIKIKHIHLIKNIIHFNQQFIFEVTKNLIPFFTNFNIFSSPDYFNYQFNYFNNCVEIMGE
MSQQELFFEVRRNRSHIYLDAEESHSVMELKLMLAGITRDPVNHMELWKLDEDGNKSQLLHDTATLSDAGFSSTNAKAQCPAALGLRLTNAEEHLTISDVSTAPPIPDTMRQEQAPQE
MIFTYNKEHVGDVLMVIVKDSKGAKLNCERKGKVTRIFLEKNKETVAWNIFAVSNLLDLNGNGQVFLTDEELAVLNAELAKEGFEEKLENNAAAKFVVGEIVEMVAHPDSDHLNICQVKIAEDKTVQIVAGAPNARVGLKTIVALPGAMMPSGGLIFPGNLRGEKSFGMLCSPRELALPKAPQKRGIIELSTDAVIGQAFDAGKHWKGLEHHHHHH
MGSDKIHHHHHHMTVNDYALVTGASGFLGSAVVRQALARGWRVRALVRATSPRANLDGLPVEVFEGDMRDPAALTSAMRGVRYLFHVAADYRLWAPDPEEIVRTNVDGTMAVMEAAQEAGVERVVYTSSVATLRVAGASAPVDETAAMTPHEAIGAYKRSKVLAERVVERMVAERGLPAVIVNPSTPIGPRDVRPTPTGRIIVEAATGKIPAFVETGLNLVHVDDVAAGHFQALERGRIGERYILGGDDVMLQQMLRDIADLCGRRPPTVQLPRWPLYPLAHAAEAVARITRKEPFVTVDGLHMSKYRMFFRSDKARQELGYQPRPYIDGLRDALDWFREAGYLR
